First the molecules themselves.
T1: monomeric Gads SH2 (Homo sapiens, UniProt O75791)
T1 construct: The SH2 only construct encoded residues Q54-Q153 of Gads, and was tagged at the N-terminus with either MBP or His; made in house; host or cells: E. coli BL21 codon-plus
T1 sequence (O75791 54-153): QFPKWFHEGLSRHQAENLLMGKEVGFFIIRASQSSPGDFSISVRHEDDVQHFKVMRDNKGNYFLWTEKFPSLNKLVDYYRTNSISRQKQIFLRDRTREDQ

T2: N-terminally twin-strep-tagged full length human Gads-GFP F92D (human, UniProt O75791 1-330)
T2 construct: Expressed in dG32 T cells and in Gads-deficient murine BMMCs; also called Gads F92D; F92D-reconstituted; not shown: N-terminal twin-strep tag; C-terminal monomeric GFP (A206K) from pMIGR
T2 sequence: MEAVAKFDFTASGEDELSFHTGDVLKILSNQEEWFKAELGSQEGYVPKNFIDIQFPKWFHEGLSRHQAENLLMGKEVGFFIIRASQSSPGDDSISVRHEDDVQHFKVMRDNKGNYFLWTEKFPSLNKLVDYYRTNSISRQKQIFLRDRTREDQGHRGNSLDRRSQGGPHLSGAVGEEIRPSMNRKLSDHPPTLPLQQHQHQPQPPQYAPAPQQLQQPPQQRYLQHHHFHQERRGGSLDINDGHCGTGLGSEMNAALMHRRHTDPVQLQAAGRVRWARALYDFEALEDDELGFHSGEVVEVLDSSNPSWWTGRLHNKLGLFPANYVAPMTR

B1: His-tagged Gads SH2 (His-SH2) (protein)
chain: MHHHHHHGSMQFPKWFHEGLSRHQAENLLMGKEVGFFIIRASQSSPGDFSISVRHEDDVQHFKVMRDNKGNYFLWTEKFPSLNKLVDYYRTNSISRQKQIFLRDRTREDQ
B2: full length MBP-tagged Gads (MBP-Gads), wild type (other, not shown: large carriers)
chain: T2 sequence with D92F
notes: Purified as monomeric and dimeric SEC fractions; also called full length Gads; Gads-MBP protein
B3: full length MBP-Gads F92A/R109A (other, not shown: large carriers; small tags and cut ends)
chain: T2 sequence with D92A, R109A
notes: Full length human Gads with double mutation; also called full length Gads F92A/R109A
B4: N-terminally twin-strep-tagged full length human Gads-GFP F92A/R109A (other)
chain: T2 sequence with D92A, R109A
notes: Expressed in dG32 T cells; also called Gads F92A/R109A; not shown: N-terminal twin-strep tag; C-terminal monomeric GFP (A206K) from pMIGR
B5: MBP-Gads lacking the C-terminal SH3 and linker (ΔC-SH3+linker, Δ154-328) (other)
chain: MEAVAKFDFTASGEDELSFHTGDVLKILSNQEEWFKAELGSQEGYVPKNFIDIQFPKWFHEGLSRHQAENLLMGKEVGFFIIRASQSSPGDFSISVRHEDDVQHFKVMRDNKGNYFLWTEKFPSLNKLVDYYRTNSISRQKQIFLRDRTREDQTR
notes: Deletion of residues 154-328; also called lacking the C-SH3 domain and the linker domain; not shown: N-terminal MBP tag and its linker from pMAL-C5x (NEB)
B6: MBP-Gads lacking the N-terminal SH3 (ΔN-SH3 Gads, Δ2-53) (other, not shown: large carriers; small tags and cut ends)
chain: MQFPKWFHEGLSRHQAENLLMGKEVGFFIIRASQSSPGDFSISVRHEDDVQHFKVMRDNKGNYFLWTEKFPSLNKLVDYYRTNSISRQKQIFLRDRTREDQGHRGNSLDRRSQGGPHLSGAVGEEIRPSMNRKLSDHPPTLPLQQHQHQPQPPQYAPAPQQLQQPPQQRYLQHHHFHQERRGGSLDINDGHCGTGLGSEMNAALMHRRHTDPVQLQAAGRVRWARALYDFEALEDDELGFHSGEVVEVLDSSNPSWWTGRLHNKLGLFPANYVAPMTR
notes: Deletion of residues 2-53; also called Gads ΔN; Gads lacking the N-SH3
B7: MBP-Gads SH2 F92A/R109A (other, not shown: large carriers; small tags and cut ends)
chain: MQFPKWFHEGLSRHQAENLLMGKEVGFFIIRASQSSPGDASISVRHEDDVQHFKVMADNKGNYFLWTEKFPSLNKLVDYYRTNSISRQKQIFLRDRTREDQ
notes: Double mutant in the context of MBP-Gads SH2; also called F92A/R109A SH2 mutant
B8: MBP-Gads SH2 R109D (other, not shown: large carriers; small tags and cut ends)
chain: B7 chain with A40F, A57D
notes: Point mutant in the context of MBP-Gads SH2
B9: MBP-Gads SH2 R109A (other)
chain: B7 chain with A40F
notes: Point mutant in the context of MBP-Gads SH2; not shown: N-terminal MBP tag and its linker from pMAL-C5x (NEB)
B10: MBP-Gads SH2 (SH2 only construct, residues Q54-Q153 of Gads), wild type (protein)
chain: T1 sequence (O75791 54-153)
B11: MBP-Gads lacking the C-terminal SH3 (ΔCSH3 Gads, Δ274-328) (other)
chain: MEAVAKFDFTASGEDELSFHTGDVLKILSNQEEWFKAELGSQEGYVPKNFIDIQFPKWFHEGLSRHQAENLLMGKEVGFFIIRASQSSPGDFSISVRHEDDVQHFKVMRDNKGNYFLWTEKFPSLNKLVDYYRTNSISRQKQIFLRDRTREDQGHRGNSLDRRSQGGPHLSGAVGEEIRPSMNRKLSDHPPTLPLQQHQHQPQPPQYAPAPQQLQQPPQQRYLQHHHFHQERRGGSLDINDGHCGTGLGSEMNAALMHRRHTDPVQLQAAGRVTR
notes: Deletion of residues 274-328; also called lacking the C-SH3 domain; not shown: N-terminal MBP tag and its linker from pMAL-C5x (NEB)
B12: phospho-LAT (endogenous, TCR-stimulated Jurkat-derived dG32 T cells) (other, UniProt O43561-2 1-233, looked up)
chain: MEEAILVPCVLGLLLLPILAMLMALCVHCHRLPGSYDSTSSDSLYPRGIQFKRPHTVAPWPPAYPPVTSYPPLSQPDLLPIPRSPQPLGGSHRTPSSRRDSDGANSVASYENEEPACEDADEDEDDYHNPGYLVVLPDSTPATSTAAPSAPALSTPGIRDSAFSMESIDDYVNVPESGESAEASLDGSREYVNVSQELHPGAAKTEPAALSSQEAEEVEEEGAPDYENLQELN
modifications: tyrosine-phosphorylated after anti-TCR (C305) stimulation; detected with anti-phospho-LAT (pY132)
notes: Endogenous protein in lysates; also called pLAT; pY132-phosphorylated LAT
B13: MBP-Gads lacking the linker (Δlinker Gads, Δ154-267) (other)
chain: MEAVAKFDFTASGEDELSFHTGDVLKILSNQEEWFKAELGSQEGYVPKNFIDIQFPKWFHEGLSRHQAENLLMGKEVGFFIIRASQSSPGDFSISVRHEDDVQHFKVMRDNKGNYFLWTEKFPSLNKLVDYYRTNSISRQKQIFLRDRTREDQQAAGRVRWARALYDFEALEDDELGFHSGEVVEVLDSSNPSWWTGRLHNKLGLFPANYVAPMTR
notes: Deletion of residues 154-267; also called lacking the linker domain; not shown: N-terminal MBP tag and its linker from pMAL-C5x (NEB)

One data set concerns the target T1, monomeric Gads SH2. The data set can be described thus: Size exclusion chromatography of monomeric Gads SH2 incubated with LAT peptides. In kind it is binding. The conditions noted are these: 0.7 μM MBP-Gads SH2 monomeric fraction, 5 μM peptide, 15 minutes on ice. The procedure: FIG. 9A is a schematic representation of two possible modes of Gads binding to 2pY-LAT. […] In FIG. 9C, 0.7 μM full length MBP-Gads from the monomeric fraction, was incubated for 15 minutes at 37° C., either alone (solid line), or in the presence of 5 μM 2pY-LAT peptide (SEQ ID NO: 32, dotted line). […] 20 μM MBP-Gads SH2 from the dimeric fraction was incubated for 30 minutes on ice (blue) or at 37° C. for 15 minutes (red, solid line), followed by an additional 15 minutes at 37° C. in the presence of 40 μM of 2pY-LAT (SEQ ID NO: 32, red dotted line); and then resolved by size exclusion chromatography.
Fast protein liquid chromatography (FPLC)—MBP- and His-tagged proteins were resolved by size exclusion chromatography at 12° C., using an ÄKTA FPLC system (GE Healthcare), fitted with Superdex 200 10/300 or 16/60 HiLoad for MBP-tagged proteins or Superdex 75 10/300 for His-tagged proteins, in column buffer containing 20 mM HEPES pH 7.3, 100 mM NaCl, 1 mM EDTA, 10% glycerol.
Two possible modes of Gads binding to 2pY-LAT were envisioned, single and paired (FIG. 9A). To ensure the availability of both modes, a 7-fold molar excess of 2pY-LAT peptide was applied. In the absence of cooperativity, the large molar excess of unbound SH2-binding sites should favor unpaired binding (FIG. 9A, left).

A short description of data set [1]: nano-DSF of dimeric His-SH2, self-association. (In DSF a fluorescence change marks the thermal transition of the protein.)
Data set [2] concerns the molecule itself. The data set can be described thus: size exclusion chromatography, Superdex 200 10/300 GL; self-association (dimer). As for the experimental part: Size-Exclusion Chromatography and Multi-Angle Light Scattering (SEC-MALS)—The average molecular weight of Gads proteins was determined by SEC-MALS. The system consisted of an ÄKTA avant 25, coupled to a UV detector (GE Healthcare) and a miniDAWN triple-angle light-scattering detector (Wyatt Technology). […] Data collection and analysis was performed with Wyatt's ASTRA 6.1.1 software.
For orientation: SEC sorts molecules by how far they enter the pores of the column.

Data set [3] concerns the molecule itself. The data set can be described thus: size exclusion chromatography; self-association.
Data set [4] has as its target B12. The data set is described as follows: streptactin pull-down of twin-strep Gads-GFP from dG32 cell lysates, western blot with anti-pY132-LAT.
Data set [5] deals with the molecule itself. The data set is described as follows: size exclusion chromatography, self-association.
Data set [6] concerns the molecule itself. The data set is described as follows: analytical size exclusion chromatography of the dimeric fraction after incubation at 37°C; self-association.
Data set [7] deals with the molecule itself. The data set can be described thus: size exclusion chromatography; self-association. The source holds these as a separate data set.
In data set [8] the target is pY171-LAT peptide (singly phosphorylated on Y171). The data set is described as follows: ITC at 25 C, peptide injected into monomeric MBP-Gads SH2; KD = 1/KA, 1:1 model.
For data set [9] the target is unchanged. The data set can be described thus: isothermal titration calorimetry, 1:1 binding model (Affinimeter), linked-parameter analysis of three repeats. In general terms: Isothermal titration calorimetry measures the heat released or taken up as one component is titrated into another.
Data set [10] deals with the molecule itself. The data set is described as follows: size exclusion chromatography; self-association. The source holds these as a separate data set.
Data set [11] is described as follows: nano-DSF of dimeric MBP-Gads SH2, self-association.
Data set [12] concerns the target T2, N-terminally twin-strep-tagged full …. The data set is described as follows: streptactin pull-down of twin-strep Gads-GFP from dG32 cell lysates, western blot with anti-pY132-LAT.

Positions count from the first letter of the chain named. Numbers in names are those of the source. Square brackets hold non-standard residues; d marks the D form. Ends that are not written are not given here. pY = N[C@@H](Cc1ccc(OP(=O)(O)O)cc1)C(=O)O

As to “DDpYVNVPESGESAEASLDGSREpYVNVSQE (DD[pY]VNVPESGESAEASLDGSRE[pY]VNVSQE) [2pY-LAT, 29-residue LAT peptide encompassing tyrosines 171 and 191, doubly phosphorylated]”, the “Gads mobility shift on size exclusion chromatography (paired binding / dimeric form)” value with monomeric Gads SH2 is “dramatic shift towards the dimeric form”.
In the case of B1, in data set [1], the “temperature of monomerization (first nano-DSF transition)” value turned out to be 32.5 °C.
As for B2, in [2], the binding result was “binds”.
With B3, the binding result in data set [3] is “no binding”.
B4: in data set [4], the binding result was “no binding”.
On to B5, for which, in data set [5], the binding result was “binds”.
On to B6, for which the binding result in data set [6] is “binds”.
Turning to B7, the binding result in [7] is recorded as “no binding”. Moreover, the Kd in data set [8] was found to be 335 nM. In data set [9], this molecule yielded an H of -9030 cal/mol.
Turning to B8, in data set [10], the binding result is on record as “binds”.
Consider B9, for which, in [10], the binding result is listed as “binds”.
The molecule B10 displayed a Kd in data set [8] of 177 nM. For the same molecule, the H in [9] is -7230 cal/mol. For the same molecule, the “temperature of subtle transition of the dimeric form (nano-DSF)” value in [11] was “approximately 33 °C”.
For the molecule B11, the binding result in data set [5] is listed as “binds”.
B12: in [12], the binding result is “no binding”.
Consider B13, for which, in data set [5], the binding result was “binds”.

What is called Kd is the constant that tells how readily two partners part at equilibrium. Low readings indicate higher affinity, high ones lower affinity.

Values taken from US20220251182A1, “AGENTS WHICH INHIBIT GADS DIMERIZATION AND METHODS OF USE THEREOF” (Technion Research & Development Foundation Limited, priority 2017, published 2022).
